Earlier results on 28 substances are cited in US7449180B2, “Macroscopic scaffold containing amphiphilic peptides encapsulating cells” (priority 2001, dated 2008).

On the set-up of the data set: key: β denotes beta-sheet; α denote alpha-helix; r.c. denotes random coil. To be noted: secondary structure of the peptide.

Regarding n-HEHEHKHKHEHEHKHK-c [EHK16], the Structure result is given as “r.c”. Take n-KAKAKAKAEAEAEAEA-c [KAE16-IV]: the Structure result is listed as “β”. In the case of n-AEAEAKAKAEAEAKAK-c [EAK16-II], the Structure entry was “β”. Take n-KADAKADA-c [KADA8-I]: the Structure entry is “r.c”. Turning to n-RAEARAEA-c [RAEA8-I], the Structure entry is reported as “r.c”. For n-AEAEAEAEAKAK-c [EAK12], the Structure entry is given as “α/β”. In the case of n-AEAEAEAEAKAKAKAK-c [EAK16-IV], the Structure result is reported as “β”. As to n-AEAKAEAKAEAKAEAK-c [EAKA16-I], the Structure entry is given as “β”. Take n-AEAKAEAK-c [EAKA8-I]: the Structure entry is on record as “r.c”. As to n-AEAEAHAH-c [EAH8-II], the Structure result is on record as “r.c”. Take n-HEHEHKHK-c [EHK8-I]: the Structure entry is listed as “r.c”. As for n-AEAEAKAK-c [EAK8-II], the Structure result was “r.c”.

In the case of n-RARARARADADADADA-c [RAD16-IV], the Structure result was “β”. In the case of n-LELELKLKLELELKLK-c [ELK16-II], the Structure entry is given as “β”. In the case of n-LELELKLK-c [ELK8-II], the Structure entry was “r.c”. As to n-RFRFRFRFRFRFRFRFRFRF-c [RF20*], the Structure result is recorded as “β”. As to n-KADAKADAKADAKADA-c [KADA16-I], the Structure entry is listed as “β”. On to n-RAEARAEARAEARAEA-c [RAEA16-I], for which the Structure entry is given as “β”.

Turning to n-FEFEFKFKFEFEFKFK-c [EFK16-II], the Structure entry was “β”. In the case of n-RADARGDARADARGDA-c [RGDA16-I], the Structure entry is given as “r.c”. As to n-RADARADA-c [RADA8-I], the Structure entry is “r.c”. Consider n-RARADADA-c [RAD8-II], for which the Structure result is “r.c”. In the case of n-FEFKFEFK-c [EFK8-II], the Structure entry was “β”. On to n-RARADADARARADADA-c [RAD16-II], for which the Structure result was “β”. Turning to n-VEVEVEVEVEVEVEVEVEVE-c [VE20*], the Structure result is on record as “β”.

As to n-(ADADADADARARARAR)-c [DAR32-IV], the Structure result is recorded as “α/β”. For the substance n-AEAEAHAHAEAEAHAH-c [EAH16-II], the Structure entry is “β”. As for n-RADARADARADARADA-c [RADA16-I], the Structure result is given as “β”.
